Substrate in data set [1]: C[C@H](N)c1ccccc1
The experiment in a line: purified protein. The settings on record: co-substrate sodium pyruvate; 5 mM PLP; (S)-PEA 0.1-15 mM. It counts as biochemical, Ruegeria pomeroyi.

Substrate in data set [2]: C[C@H](N)c1ccccc1
The experiment in a line: purified protein. The following applies: co-substrate sodium pyruvate; 5 mM PLP; (S)-PEA 0.1-15 mM. It is filed as biochemical, synthetic construct.

As a reminder, the Km is the concentration of substrate that gives half-maximal velocity. One may read the kcat as the maximal rate divided by the concentration of active sites.

B1: Sp-ATA (Ruegeria pomeroyi DSS-3) (protein)
chain: MATITNHMPTAELQALDAAHHLHPFSANNALGEEGTRVITRARGVWLNDSEGEEILDAMAGLWCVNIGYGRDELAEVAARQMRELPYYNTFFKTTHVPAIALAQKLAELAPGDLNHVFFAGGGSEANDTNIRMVRTYWQNKGQPEKTVIISRKNAYHGSTVASSALGGMAGMHAQSGLIPDVHHINQPNWWAEGGDMDPEEFGLARARELEEAILELGENRVAAFIAEPVQGAGGVIVAPDSYWPEIQRICDKYDILLIADEVICGFGRTGNWFGTQTMGIRPHIMTIAKGLSSGYAPIGGSIVCDEVAHVIGKDEFNHGYTYSGHPVAAAVALENLRILEEENILDHVRNVAAPYLKEKWEALTDHPLVGEAKIVGMMASIALTPNKASRAKFASEPGTIGYICRERCFANNLIMRHVGDRMIISPPLVITPAEIDEMFVRIRKSLDEAQAEIEKQGLMKSAA
notes: wild type, pET22b(+), E. coli BL21(DE3), Ni-NTA purified (His-tag), homodimer
As to B1, in “purified protein [1]”, the Km is recorded as 3.64 ± 0.31 mM and the kcat worked out at 6.33 ± 0.19 s⁻¹.

B2: N50 (synthetic construct) (protein)
chain: MSMSTITNHMPTAELQALDAAHHMHPFSTNNELAEEGVRVITRAKGVWLTDSEGEEILDAMAGLWCVNIGYGRDELAEVAARQMRELPYYNTFFKTTHVPAIALAQKLAELAPGDLNHVFFAGGGSEANDTNIRMVRTYWAEKGKPEKNVIISRKNAYHGSTVGSASLGGMAGMHAQGGIPIPDIHHINQPNWWAEGRPGDTGMTPEEFGLARARELEEAILELGEDRVAAFIAEPVQGAGGVIVAPDTYWPEIQRICDKYEILLIADEVICGFGRTGNWFGSQTMGIRPHIMTIAKGLSSGYAPIGGSIVCDEVAEVIIGGKCEFNHGYTYSGHPVAAAVALENLRILEEENIIDHVRNVAAPYLKEKWEALTDHPLVGEAKIVGMMGSIALTPDKATRAKFASEPGTIGYICRERCFANNLVMRHVGDRMIISPPLVITPEEIDEMFVRIRKSLDEAHAEILRQGLMKAAG
notes: pET22b(+), E. coli BL21(DE3), Ni-NTA purified
As to B2, in “purified protein [2]”, the Km came to 6.22 ± 1.01 mM and the kcat was found to be 0.39 ± 0.03 s⁻¹.

B3: N49 (synthetic construct) (protein)
chain: MSMSTITNHMPTAELQALDAAHHMHPFTTNNELAEKGARVITRAKGVWLTDSEGEEILDAMAGLWCVNIGYGRDELAEVAARQMRELPYYNTFFQTTHVPAIALAAKLAELAPGDLNHVFFAGGGSEANDTNIRMVRTYWAEKGKPEKNIIISRKNAYHGSTVGSASLGGMAGMHAQGGLPIPDIHHIDQPNWWAEGRPGDTGMTPEEFGLARARELEQAILELGEDRVAAFIAEPVQGAGGVIVAPDTYWPEIQRICDKYEILLIADEVICGFGRTGNWFGSQTMGIRPHIMTIAKGLSSGYAPIGGSIVCDEVAEVIIGGKCEFNHGYTYSGHPVAAAVALENLRILEEENIIDHVRNVAAPYLKEKWEALTDHPLVGEAKIVGMMGSIALTPDKATRAAFASEPGTVGYICRERCFANNLVMRHVGDRMIISPPLVITPEEIDTLIERARKSLDEAHAELKRQGLMKAAG
notes: as for B2
As for B3, in the data set “purified protein [2]”, the Km turned out to be 2.02 ± 0.19 mM and the kcat is 1.10 ± 0.03 s⁻¹.

Source of the values: publication PMC12247033, “Exploring the Stability and Substrate Profile of Transaminase from Silicibacter pomeroyi with Ancestral Sequence Reconstruction” (Chembiochem, 2025).
